Where no end group is shown, it is not given here.

Experimental findings from patent US20170081378A1 (INDIANA UNIVERSITY RESEARCH AND TECHNOLOGY, published 2017) are described below.

Test [1] deals with T1, fLL-37 (LL-37 with 5' carboxyfluorescein coupled to the N-terminus) (human, 5' carboxyfluorescein coupled to the N-terminus).
T1 construct: Custom synthesized labelled peptide (AnaSpec), used at 0.1 uM in the fluorescence polarization assay; also called fluorescein-labeled LL-37
T1 peptide: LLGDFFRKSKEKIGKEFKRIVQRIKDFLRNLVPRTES
Put plainly: fluorescence polarization, fLL-37 0.1 uM, peptide titrated 1-1000 nM, phosphate buffer pH 7.0.

For test [2], the target named is T1, fLL-37 (LL-37 with 5' …). Kind of test: FRET between fLL-37 and rLL-37 (1:1) in endosomes of BEAS-2B cells, confocal microscopy. As for the experimental part:
FIG. 3. Oligomerization of LL-37 depends upon pH. A) LL-37 forms particles that are micrometers in hydrodynamic radii at neutral pH and the particles dissociate when the pH is decreased. All assays were performed with LL-37 at a concentration of 1 ᵢlM in phosphate buffer. […] C) LL-37 particles will dissociate in the presence of salt. The hydrodynamic radius of ˜1 μM LL-37 was determined in a pH 7.4 phosphate buffer adjusted to contain the concentration of NaCl indicated. D) fLL37 and rLL-37 colocalize in endosomes of BEAS-2B cells. fLL-37, rLL-37, and poly(I:C) were added to BEAS-2B cells that were either mock-treated or treated with ammonium chloride and imaged 60 min later by excitation at 488 nm or at 561 nm. The micrograph images were then merged to show the co-localization of the two fluorescent peptides. E) Co-localization of fLL-37 and rLL-37 in BEAS-2B cells was quantified in the absence or presence of endosomal acidification inhibitors. To detect both peptides, the cells were excited with 488 and 561 nm laser. To determine FRET between the two peptides, the cells were excited at only 488 nm laser, which activates fluorescence of fLL-37 and the emissions for both fluorescein and rhodamine were determined. The data shown were quantified from 20 independent cells from three independently prepared samples. The p values were calculated by using the Student t-test. […]

The target in test [3] is fLL-37 (LL-37 with 5' carboxyfluorescein coupled to the N-terminus) (human). Put plainly: fluorescence polarization, fLL-37 0.1 uM, peptide titrated 1-1000 nM, phosphate buffer pH 7.0. In general terms: Fluorescence polarisation rises when a labelled molecule tumbles more slowly, as on binding a larger partner.
Test [4] addresses T1, fLL-37 (LL-37 with 5' …). Kind of test: fluorescence polarization (FIG. 11).

B1: LL-29 (peptide)
peptide: LLGDFFRKSKEKIGKEFKRIVQRIKDFLR
notes: N-terminal 29 residues of LL-37 (lacks the C-terminal 8 residues)
Take B1: the “fold change in the fluorescence anisotropy values of f-LL-37 between 1.0 nM and 1000 nM of added peptide” value (“fold change” below) with fLL-37 (LL-37 with 5' …) [1] was 6.2 fold.

For LLGDFFRKSKEKIGKEFKRIVQRIKDFLRNLVPRTES (also: rhodamine label, position not given here) [rhodamine-labeled LL-37 (rLL-37)], the binding result in the test with fLL-37 (LL-37 with 5' …) [2] is “binds”.

B2: LL-37 (peptide)
peptide: LLGDFFRKSKEKIGKEFKRIVQRIKDFLRNLVPRTES
notes: Unlabelled synthetic 37-residue peptide; also called WT LL-37; native LL-37
Take B2: in the test with fLL-37 (LL-37 with 5' …) [1], the “fold change” value is 6 fold.

B3: Peptide A (peptide)
peptide: LLGDFFRKSKEKIGKEFKRIVQRIKDFLRKLVPQPEQ
notes: LL-37 with the C-terminal four residues replaced with those from mCRAMP
Consider B3, for which the “fold change” value in the test with fLL-37 (LL-37 with 5' …) [1] was 5 fold.

In turn, SKEKIGKEFKRIVQRIKDFLR [LL9-29] returned a fold change in the fluorescence anisotropy values of f-LL-37 between 1.0 nM and 1000 nM of added peptide in test [3] of 2.6 fold.

Regarding SKEKIGKEFKRIVQRIKDFLRNLVPRTES [LL8-37], in the test with fLL-37 (LL-37 with 5' …) [4], the binding result was “binds”.

With GLLRKGGEKIGEKLKKIGQKIKNFFQKLVPQPEQ (also called mouse peptide) [mCRAMP (murine ortholog of LL-37)], the “fold change” value with fLL-37 (LL-37 with 5' …) [1] is 2.6 fold.
